B1: phage displaying the peptide of SEQ ID NO: 14 on the pIX minor coat protein (peptide)
peptide: AGRECLPQFGLPLCPD
modifications: cysteine pairing not given here; also: displayed on phage pIX minor coat protein
notes: not shown: pIX minor coat protein of the phage that carries the peptide
B2: phage displaying the peptide of SEQ ID NO: 8 on the pIX minor coat protein (peptide)
peptide: AGSWCTHPAIGCLS
modifications: cysteine pairing not given here; also: displayed on phage pIX minor coat protein
notes: as for B1
B3: phage displaying the peptide of SEQ ID NO: 18 on the pIX minor coat protein (peptide)
peptide: AGRLCHATVDGVAVGCLT
modifications: cysteine pairing not given here; also: displayed on phage pIX minor coat protein
notes: as for B1
B4: phage displaying the peptide of SEQ ID NO: 13 on the pIX minor coat protein (peptide)
peptide: AGSTCIPSMTPLCPS
modifications: cysteine pairing not given here; also: displayed on phage pIX minor coat protein
notes: as for B1
B5: phage displaying the peptide of SEQ ID NO: 10 on the pIX minor coat protein (peptide)
peptide: AGLQCSPPLPLYCEP
modifications: cysteine pairing not given here; also: displayed on phage pIX minor coat protein
notes: as for B1
B6: phage displaying the peptide of SEQ ID NO: 5 on the pIX minor coat protein (peptide)
peptide: AGYRRPIQPGPEAVSLL
modifications: also: displayed on phage pIX minor coat protein, junction not given here
notes: as for B1
B7: phage displaying the peptide of SEQ ID NO: 12 on the pIX minor coat protein (peptide)
peptide: AGASCSPGLHPLCPG
modifications: cysteine pairing not given here; also: displayed on phage pIX minor coat protein
notes: as for B1
B8: phage displaying the peptide of SEQ ID NO: 21 on the pIX minor coat protein (peptide)
peptide: AGIRCPVDAIGLTANCSY
modifications: cysteine pairing not given here; also: displayed on phage pIX minor coat protein
notes: as for B1
B9: phage displaying the peptide of SEQ ID NO: 6 on the pIX minor coat protein (peptide)
peptide: AGRDSFNLLTSSPLPST
modifications: also: displayed on phage pIX minor coat protein, junction not given here
notes: as for B1
B10: phage displaying the peptide of SEQ ID NO: 2 on the pIX minor coat protein (peptide)
peptide: AGPPGPYIAASAFLALK
modifications: also: displayed on phage pIX minor coat protein, junction not given here
notes: as for B1
B11: phage displaying the peptide of SEQ ID NO: 9 on the pIX minor coat protein (peptide)
peptide: AGSPCSPGQLPLCPA
modifications: cysteine pairing not given here; also: displayed on phage pIX minor coat protein
notes: as for B1
B12: phage displaying the peptide of SEQ ID NO: 16 on the pIX minor coat protein (peptide)
peptide: AGPDCRLSPLQPAVCVW
modifications: cysteine pairing not given here; also: displayed on phage pIX minor coat protein
notes: as for B1
B13: phage displaying the peptide of SEQ ID NO: 20 on the pIX minor coat protein (peptide)
peptide: AGTLCGVDDYTGLTGCLA
modifications: cysteine pairing not given here; also: displayed on phage pIX minor coat protein
notes: as for B1
B14: phage displaying the peptide of SEQ ID NO: 1 on the pIX minor coat protein (peptide)
peptide: AGLPLQSMSRLSYDSLS
modifications: also: displayed on phage pIX minor coat protein, junction not given here
notes: as for B1
B15: phage displaying the peptide of SEQ ID NO: 19 on the pIX minor coat protein (peptide)
peptide: AGTVCPPDLTGLTAACYY
modifications: cysteine pairing not given here; also: displayed on phage pIX minor coat protein
notes: as for B1
B16: phage displaying the peptide of SEQ ID NO: 22 on the pIX minor coat protein (peptide)
peptide: AGRSCYREPSTMLYACTA
modifications: cysteine pairing not given here; also: displayed on phage pIX minor coat protein
notes: as for B1
B17: phage displaying the peptide of SEQ ID NO: 17 on the pIX minor coat protein (peptide)
peptide: AGAHCLRDHMGLTSCIP
modifications: cysteine pairing not given here; also: displayed on phage pIX minor coat protein
notes: as for B1
B18: phage displaying the peptide of SEQ ID NO: 11 on the pIX minor coat protein (peptide)
peptide: AGPRCPPMHFSVCLS
modifications: cysteine pairing not given here; also: displayed on phage pIX minor coat protein
notes: as for B1
B19: phage displaying the peptide of SEQ ID NO: 15 on the pIX minor coat protein (peptide)
peptide: AGSVCLAQYSATPLCPH
modifications: cysteine pairing not given here; also: displayed on phage pIX minor coat protein
notes: as for B1
B20: SEQ ID NO: 26 (peptide)
displayed peptide: AGYTSFALSSSAESTLP
B21: SEQ ID NO: 31 (peptide)
displayed peptide: AGRDSFNLLTSSSSPST
B22: SEQ ID NO: 32 (peptide)
displayed peptide: AGRDSFNLLTSSPLSSS

No end group written: not given here.

In one assay the target is T1, human serum albumin (human, UniProt P02768 25-609).
T1 construct: Cross-reactivity control coated at 5 micrograms/mL; also called HSA
As to the kind of experiment: phage ELISA, HSA-coated wells, HRP anti-M13 antibody, luminescence. The procedure: (§1) 96-well black ELISA plates were coated with streptavidin (Rows A through D), hIgG (Rows E and F) and human serum albumin (Rows G and H), at a concentration of 5 micrograms/mL in PBS. Plates were incubated overnight at 4° C. Plates were washed 3 times with TBST using a plate washer. To the streptavidin-coated wells in rows C and D, 100 microliters of a 4 micrograms/mL solution of biotinylated-BMP-2 (R&D Systems, Minneapolis, Minn., Item number 355-BM/CF), was introduced and allowed to sit at room temperature for 30 minutes. To all other wells, 100 microliters of PBS was introduced. The plates were again washed 3 times with TBST using the plate washer. The wells were then blocked with 250 microliters of a 3% dehydrated milk suspension in TBST and allowed to sit at room temperature for a minimum of 1 hour. Using phage concentrations determined by the phage titrations, dilutions of the phage stock solutions were performed in a separate 96-well plate to result in phage concentrations of 10¹⁰, 10⁹, 10⁸, 10⁷, 10⁶ and 10⁵ phage/well. After blocking, the ELISA plate was washed 3 times with TBST and 100 microliters of the phage dilutions were introduced to the respective ELISA plates and allowed to sit at room temperature for a minimum of 1 hour. The ELISA plate was again washed 3 times with TBST using the plate washer and 100 microliters of an HRP-conjugated Anti-M13 Phage Mab (1:5000 dilution in PBS) was introduced to each well. The plates were allowed to sit at room temperature for 1 hour after which time the plates were washed 3 times with TBST. Next, a POD HRP-substrate was introduced to each well. The luminescence was read using a luminometer set with a gain of 150.
A general note: In an ELISA, binding on a coated surface is turned into a signal by an enzyme label.
On to B1, for which the binding result is on record as “no binding (tested: 10^9 phage/mL)”.

On to B2, for which the binding result was “no binding (tested: 10^9 phage/mL)”.

Take B3: the binding result is given as “no binding (tested: 10^9 phage/mL)”.

Regarding B4, the binding result is on record as “no binding (tested: 10^9 phage/mL)”.

Take B5: the binding result was “no binding (tested: 10^9 phage/mL)”.

With B6, the binding result is on record as “no binding (tested: 10^9 phage/mL)”.

As for B7, the binding result is given as “no binding (tested: 10^9 phage/mL)”.

B8: the binding result was “no binding (tested: 10^9 phage/mL)”.

With B9, the binding result is “no binding (tested: 10^9 phage/mL)”.

For the molecule B10, the binding result is reported as “no binding (tested: 10^9 phage/mL)”.

On to B11, for which the binding result is listed as “no binding (tested: 10^9 phage/mL)”.

Regarding B12, the binding result was “no binding (tested: 10^9 phage/mL)”.

B13: the binding result was “no binding (tested: 10^9 phage/mL)”.

For B14, the binding result is on record as “no binding (tested: 10^9 phage/mL)”.

For the molecule B15, the binding result is given as “no binding (tested: 10^9 phage/mL)”.

Turning to B16, the binding result is reported as “no binding (tested: 10^9 phage/mL)”.

Take B17: the binding result was “no binding (tested: 10^9 phage/mL)”.

On to B18, for which the binding result is listed as “no binding (tested: 10^9 phage/mL)”.

Consider B19, for which the binding result was “no binding (tested: 10^9 phage/mL)”.

In another assay the target is T2, biotinylated BMP-2 (R&D Systems, Item number 355-BM/CF) (human, UniProt P12643 283-396, biotinylated (sites not given)).
T2 construct: Bought protein, biotinylated, captured on streptavidin plates (phage ELISA) or streptavidin donor beads (ALPHA); also called bone morphogenic protein-2
T2 sequence (P12643 283-396 limits assumed): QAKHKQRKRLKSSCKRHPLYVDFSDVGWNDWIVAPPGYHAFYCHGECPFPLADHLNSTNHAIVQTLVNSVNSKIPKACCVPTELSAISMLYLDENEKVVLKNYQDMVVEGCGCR
Kind of assay: phage ELISA, biotinylated BMP-2 captured on streptavidin-coated wells, HRP anti-M13 antibody, luminescence.
Take B1: the binding result is listed as “binds”.

For B2, the binding result was “binds”.

For the molecule B3, the binding result is given as “binds”.

For B4, the binding result is “binds”.

On to B5, for which the binding result is “binds”.

B6: the binding result is “binds”.

As for B7, the binding result is on record as “binds”.

With B8, the binding result is given as “binds”.

For B10, the binding result is “binds”.

With B11, the binding result was “binds”.

Consider B12, for which the binding result is reported as “binds”.

For B13, the binding result is “binds”.

Consider B14, for which the binding result is recorded as “binds”.

With B15, the binding result was “binds”.

On to B16, for which the binding result was “binds”.

Regarding B17, the binding result is listed as “binds”.

As for B18, the binding result is given as “binds”.

With B19, the binding result is “binds”.

Another assay deals with T2, biotinylated BMP-2 (R&D Systems, Item …). Kind of assay: mutant phage ELISA titration on BMP-2 by the procedure of Example 3. As to the method: as §1, with “To” for “96-well black ELISA plates were coated with streptavidin (Rows A through D), hIgG (Rows E and F) and human serum albumin (Rows G and H), at a concentration of 5 micrograms/mL in PBS. Plates were incubated overnight at 4° C. Plates were washed 3 times with TBST using a plate washer. To the streptavidin-coated wells in rows C and D, 100 microliters of a 4 micrograms/mL solution of biotinylated-BMP-2 (R&D Systems, Minneapolis, Minn., Item number 355-BM/CF), was introduced and allowed to sit at room temperature for 30 minutes. To”
The respective custom oligonucleotide was obtained from Integrated DNA Technologies. The oligonucletides were inserted into the pIX gene using standard protocols. First, the oligonucletides were phosphorylated using T4 polynucleotide kinase. Next, the phosphorylated oligonucletides were annealed to the ssDNA template. Using the Kunkel method, the annealed DNA was ligated using T4 DNA ligase and T7 DNA polymerase. The resultant DNA was isolated using isopropanol precipitation and a gel was run to confirm the reaction. Lastly, electro-competent E. coli cells were transformed with the purified DNA and were plated out onto 2xYT/Tet/Xgal agar plates and allowed to grow overnight to isolate single colonies. An aliquot of the transformed cells was allowed to grow overnight at 37° C. while shaking in 50 mL 2xYT/tet media. The phage were then PEG precipitated following the procedure in Example 1. A phage titration was performed to determine the concentration of phage for the ELISA assay as described in Example 2. ELISA assays were performed following the procedure in Example 3.
Regarding B20, the binding result is recorded as “no binding (tested: 1.00E+10 phage/well)”.

For B21, the binding result is listed as “binds”.

Consider B22, for which the binding result is listed as “binds”.

The record behind these values is US20110230406A1 (ADVANCED TECHNOLOGIES AND REGENERATIVE MEDICINE, published 2011).
